“And” between values parts separate entries of the source, which are not always exact repeats. Identical values can stand only once.
B1: Alpha-lactalbumin, P00712 (parent)
chain: MMSFVSLLLVGILFHATQAEQLTKCEVFQKLKDLKDYGGVSLPEWVCTAFHTSGYDTQAIVQNNDSTEYGLFQINNKIWCKDDQNPHSRNICNISCDKFLDDDLTDDIVCAKKILDKVGINYWLAHKALCSEKLDQWLCEKL

Variants of: B1
Conditions: Capra hircus, pH 7, 25 °C, GdnHCl, CD, sodium cacodylate 50 mM, NaCl 50 mM, structure 1HFY, whole UniProt chain shown

Variant | denaturant m value [kcal/mol/M] | denaturant midpoint (higher = more stable) [M] | unfolding free energy [kcal/mol] | denaturant m value (transition: 3) | denaturant midpoint (higher = more stable) (transition: 3) | unfolding free energy (transition: 3)
MMSFVSLLLVGILFHATQAEQLTKCEVFQKLKDLKDYGGVSLPEWVCTAFHTSGYDTQAIVQNNDSTEYGLFQINNKIWCKDDQNPHSRNICNISCDKFLDDDLTDDIVCAKKILDKVGINYWLAHKALCSEKLDQFLCEKL [W137F] | 2.12 | 2.49 | 5.27 | – | – | –
MMSFVSLLLVGILFHATQAEQLTKCEVFQKLKDLKDYGGVSLPEWVCTAFHTSGYDTQAIVQNNDSTEYGLFQINNKIACKDDQNPHSRNICNISCDKFLDDDLTDDIVCAKKILDKVGINYWLAHKALCSEKLDQWLCEKL [W79A] | 2.4 | 1.59 | 3.82 | 1.79 kcal/mol/M and 0.61 kcal/mol/M | 1.58 M and 1.65 M | 2.82 kcal/mol and 1 kcal/mol
MMSFVSLLLVGILFHATQAEQLTKCEAFQKLKDLKDYGGVSLPEWVCTAFHTSGYDTQAIVQNNDSTEYGLFQINNKIWCKDDQNPHSRNICNISCDKFLDDDLTDDIVCAKKILDKVGINYWLAHKALCSEKLDQWLCEKL [V27A] | 2.1 | 2.26 | 4.74 | 1.48 kcal/mol/M | 2.76 M | 4.1 kcal/mol
MMSFVSLLLVGILFHATQAEQLTKCEVFQKLKDLKDYGGVSLPEWVCTAFHTSGYDTQAIVQNNDSTEYGLFQINNKIWCKDDQNPHSRNICNISCDKFLDDDLTDDIVCAKKIADKVGINYWLAHKALCSEKLDQWLCEKL [L115A] | 1.72 | 2 | 3.44 | 1.09 kcal/mol/M and 0.63 kcal/mol/M | – | –
MMSFVSLLLVGILFHATQAEQLTKCEVFQKLKDLKDYGGVSLPEWVCTAFHTSGYDTQAIVQNNDSTEYGLFQINNKIWCKDDQNPHSRNICNISCDKFLDDDLTDDVVCAKKILDKVGINYWLAHKALCSEKLDQWLCEKL [I108V] | 1.95 | 2.33 | 4.54 | 1.3 kcal/mol/M and 0.65 kcal/mol/M | 2.95 M and 1.09 M | –
MMSFVSLLLVGILFHATQAEQLTKCEVFQKLKDLKDYGGVSLPEWVCTAFHTSGYDTQAIVQNNDSTEYGLFQINNKIWCKDDQNPHSRNICNISCDKFLDDDLTDDIVCAKKVLDKVGINYWLAHKALCSEKLDQWLCEKL [I114V] | 1.92 | 1.92 | 3.69 | 1.21 kcal/mol/M and 0.71 kcal/mol/M | 2.46 M and 1 M | –
MMSFVSLLLVGILFHATQAEQLTKCEVFQKLKDLKDYGGVSLPEWVCTAFHTSGYDTQAIVQNNDSTEYGLFQINNKIWCKDDQNPHSRNICNISCDKFLDDDLTDDIVCAAKILDKVGINYWLAHKALCSEKLDQWLCEKL [K112A] | 2.12 | 1.83 | 3.88 | 1.51 kcal/mol/M and 0.61 kcal/mol/M | 2.07 M and 1.24 M | –
MMSFVSLLLVGILFHATQAEQLTKCEVFQKLKDLKDYGGVSLPEWVCTAFHTSGYDTQAIVQNNDSTEYGLFQINNKIWCKDDQNPHSRNICNISCDKFLDDDLTDDIACAKKILDKVGINYWLAHKALCSEKLDQWLCEKL [V109A] | 2.22 | 2.99 | 6.63 | 1.64 kcal/mol/M and 0.58 kcal/mol/M | 3.5 M and 1.54 M | –
MMSFVSLLLVGILFHATQAEQLTKCEVFQKLKDLKDYGGVSLPEWACTAFHTSGYDTQAIVQNNDSTEYGLFQINNKIWCKDDQNPHSRNICNISCDKFLDDDLTDDIVCAKKILDKVGINYWLAHKALCSEKLDQWLCEKL [V46A] | 2.7 | 1.81 | 4.88 | 1.9 kcal/mol/M and 0.8 kcal/mol/M | 2.17 M and 0.94 M | –
MMSFVSLLLVGILFHATQAEQLTKCEVFQKLKDLKDYGGVSLPEWVCTAFHTSGYDTQAIVQNNDSTEYGLFQINNKIWCKDDQNPHSRNICNISCDKFLDDDLTDDIVCAKKILDKVGINYWLAHKAACSEKLDQWLCEKL [L129A] | 2.29 | 2.38 | 5.45 | 1.69 kcal/mol/M and 0.6 kcal/mol/M | – | –
MMSFVSLLLVGILFHATQAEQLTKCEVFQKLKDLKDYGGVSLPEWVCTAFHTSGYDTQAIVQNNDSTEYGAFQINNKIWCKDDQNPHSRNICNISCDKFLDDDLTDDIVCAKKILDKVGINYWLAHKALCSEKLDQWLCEKL [L71A] | 2.03 | 1.15 | 2.34 | 1.52 kcal/mol/M and 0.51 kcal/mol/M | 1.16 M and 1.13 M | –
MMSFVSLLLVGILFHATQAEQLTKCEVFQKAKDLKDYGGVSLPEWVCTAFHTSGYDTQAIVQNNDSTEYGLFQINNKIWCKDDQNPHSRNICNISCDKFLDDDLTDDIVCAKKILDKVGINYWLAHKALCSEKLDQWLCEKL [L31A] | 2.6 | 1.21 | 3.17 | – | 1.37 M and 0.62 M | –
MMSFVSLLLVGILFHATQAEQLTKCEVFQKLKDLKDYGGVSLPEWVCTAFHTSGYDTQAIVQNNDSTEYGLFQINNKIWCKDDQNPHSRNICNISCDKFLDDDLTNDIVCAKKILDKVGINYWLAHKALCSEKLDQWLCEKL [D106N] | 2.18 | 2.07 | 4.51 | 0.72 kcal/mol/M | 1.49 M | 1.08 kcal/mol
MMSFVSLLLVGILFHATQAEQLTKCEVFQKLKDLKDYGGVSLPEWVCTAFHTSGYDTQAIVQNNDSTEYGLFQINNKIWCKDDQNPHSRNICNISCDKFLDDDLTDDIVCAKKILDKVGINFWLAHKALCSEKLDQWLCEKL [Y122F] | 1.82 | 1.76 | 3.2 | 1.3 kcal/mol/M and 0.52 kcal/mol/M | 1.64 M and 2.07 M | 2.13 kcal/mol and 1.08 kcal/mol
MMSFVSLLLVGILFHATQAEQLTKCEVFQKLKDLKDYGGVSLPEWVCTAFHTSGYDTQAIVQNNDSTEYGLFQINNKIWCKDDQNPHSRNICNISCDKFLDDDLTDDIVCAKKILDKVGINYWAAHKALCSEKLDQWLCEKL [L124A] | – | – | – | 2 kcal/mol/M and 0.74 kcal/mol/M | 2.55 M and 1.22 M | –
MMSFVSLLLVGILFHATQAEQLTKCEVFQKLKDLKDYGGVSLPEWVCTAFHTSGYDTQAIVQNNDSTEYGLFQVNNKIWCKDDQNPHSRNICNISCDKFLDDDLTDDIVCAKKILDKVGINYWLAHKALCSEKLDQWLCEKL [I74V] | – | – | – | 0.62 kcal/mol/M and 0.75 kcal/mol/M | 2.38 M and 1.04 M | 1.48 kcal/mol and 0.78 kcal/mol

From FireProtDB (doi:10.1016/j.jmb.2004.06.010)
